Laboratory results: patent US10117916B2, “Peptides and combination of peptides for use in immunotherapy against CLL and other cancers” (immatics biotechnologies GmbH, priority 2015, dated 2018)

Each substance was assayed against HLA-A*02:01 (Homo sapiens, UniProt P04439, D140Y/D185E/D98H/E176V/E277Q/G131W/G231S/I119V/I121R/I166T/I218V/L300P/L318F/N151K/N90K/P208A/P217A/Q86G/Q94H/R138H/R169H/T345S) (assay: MHC binding assay: UV-ligand exchange with β2m ELISA (peptide exchange yield)). Conditions: MHC class I binding score; binding to HLA-A*02:01 ranged by peptide exchange yield (UV-ligand exchange, β2m ELISA).
Method in brief: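 Peptide–MHC complexes formed by UV-ligand exchange, cleaving a UV-sensitive peptide so the test peptide can bind. Exchange yield measured by ELISA: complexes captured on streptavidin-coated wells, diluted 100-fold, detected with HRP anti-β2m (1 h, 37 °C) and TMB at 450 nm, against refolded HLA-A*02:01/MLA-001 standards (15-500 ng/ml).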

Row | Substance | Peptide Exchange
1 | 147 (SILETVATL; listed as Homo sapiens) [compound 147] | ″+++″ (≥50 = +++)
2 | 370 (SIFASPESV; listed as Homo sapiens) [compound 370] | ″+++″ (≥50 = +++)
3 | 177 (VLDDRELLL; listed as Homo sapiens) [compound 177] | ″+++″ (≥50 = +++)
4 | 28 (AVLHLLLSV; listed as Homo sapiens) [compound 28] | ″++″ (≥20% = ++)
5 | 204 (GLLQINDKIAL; listed as Homo sapiens) [compound 204] | ″+++″ (≥50 = +++)
6 | 38 (FIMEGGAMV; listed as Homo sapiens) [compound 38] | ″+++″ (≥50 = +++)
7 | 93 (ILFNTQINI; listed as Homo sapiens) [compound 93] | ″+++″ (≥50 = +++)
8 | 109 (KLWEGLTELV; listed as Homo sapiens) [compound 109] | ″+++″ (≥50 = +++)
9 | 139 (NLTDVVEKL; listed as Homo sapiens) [compound 139] | ″+++″ (≥50 = +++)
10 | 223 (ALWVSQPPEI; listed as Homo sapiens) [compound 223] | ″+++″ (≥50 = +++)
11 | 358 (FLTDYLNDL; listed as Homo sapiens) [compound 358] | ″+++″ (≥50 = +++)
12 | 288 (GLAESTGLLAV; listed as Homo sapiens) [compound 288] | ″+++″ (≥50 = +++)
13 | 78 (GLPSFLTEV; listed as Homo sapiens) [compound 78] | ″+++″ (≥50 = +++)
14 | 75 (GLSIFAQDLRL; listed as Homo sapiens) [compound 75] | ″++″ (≥20% = ++)
15 | 180 (LLKDGPEIGL; listed as Homo sapiens) [compound 180] | ″++″ (≥20% = ++)
16 | 31 (ELMHGVAGV; listed as Homo sapiens) [compound 31] | ″+++″ (≥50 = +++)
17 | 88 (ILDEIGADVQA; listed as Homo sapiens) [compound 88] | ″+++″ (≥50 = +++)
18 | 209 (ILQAELPSL; listed as Homo sapiens) [compound 209] | ″+++″ (≥50 = +++)
19 | 291 (ILLNEDDLVTI; listed as Homo sapiens) [compound 291] | ″+++″ (≥50 = +++)
20 | 227 (FLAEASVMTQL; listed as Homo sapiens) [compound 227] | ″+++″ (≥50 = +++)
21 | 120 (AIDAALTSV; listed as Homo sapiens) [compound 120] | ″+++″ (≥50 = +++)
22 | 37 (FIMEGGAMVL; listed as Homo sapiens) [compound 37] | ″++++″ (≥75% = ++++)
23 | 246 (KLDETGVAL; listed as Homo sapiens) [compound 246] | ″++″ (≥20% = ++)
24 | 254 (QLIPKLIFL; listed as Homo sapiens) [compound 254] | ″+++″ (≥50 = +++)
25 | 67 (GLDDVTVEV; listed as Homo sapiens) [compound 67] | ″++″ (≥20% = ++)
26 | 186 (VMDPTKILI; listed as Homo sapiens) [compound 186] | ″++++″ (≥75% = ++++)
27 | 352 (ALVFELHYV; listed as Homo sapiens) [compound 352] | ″+++″ (≥50 = +++)

Row | Substance | Peptide Exchange
28 | 104 (KLILLDTPLFL; listed as Homo sapiens) [compound 104] | ″+++″ (≥50 = +++)
29 | 300 (ILLNPAYDVYL; listed as Homo sapiens) [compound 300] | ″+++″ (≥50 = +++)
30 | 219 (ALLNLLESA; listed as Homo sapiens) [compound 219] | ″+++″ (≥50 = +++)
31 | 179 (VLLGLEMTL; listed as Homo sapiens) [compound 179] | ″+++″ (≥50 = +++)
32 | 178 (VLFFNVQEV; listed as Homo sapiens) [compound 178] | ″+++″ (≥50 = +++)
33 | 113 (KVPAEEVLVAV; listed as Homo sapiens) [compound 113] | ″+++″ (≥50 = +++)
34 | 68 (GLDQQFAGLDL; listed as Homo sapiens) [compound 68] | ″+″ (≥10% = +)
35 | 173 (TVIENIHTI; listed as Homo sapiens) [compound 173] | ″++″ (≥20% = ++)
36 | 27 (AVLGLVWLL; listed as Homo sapiens) [compound 27] | ″+++″ (≥50 = +++)
37 | 166 (TLDPNQVSL; listed as Homo sapiens) [compound 166] | ″++″ (≥20% = ++)
38 | 232 (FMHQIIDQV; listed as Homo sapiens) [compound 232] | ″++++″ (≥75% = ++++)
39 | 284 (LLSAAEPVPA; listed as Homo sapiens) [compound 284] | ″++″ (≥20% = ++)
40 | 338 (FLDMTNWNL; listed as Homo sapiens) [compound 338] | ″++++″ (≥75% = ++++)
41 | 149 (SLDNGGYYI; listed as Homo sapiens) [compound 149] | ″+++″ (≥50 = +++)
42 | 301 (AASPIITLV; listed as Homo sapiens) [compound 301] | ″+++″ (≥50 = +++)
43 | 183 (VLMPTVYQQGV; listed as Homo sapiens) [compound 183] | ″+++″ (≥50 = +++)
44 | 148 (SIVASLITV; listed as Homo sapiens) [compound 148] | ″+++″ (≥50 = +++)
45 | 224 (AMEALVVEV; listed as Homo sapiens) [compound 224] | ″+++″ (≥50 = +++)
46 | 20 (ALVDPGPDFVV; listed as Homo sapiens) [compound 20] | ″+++″ (≥50 = +++)
47 | 258 (RLDYITAEI; listed as Homo sapiens) [compound 258] | ″+++″ (≥50 = +++)
48 | 89 (ILDFGTFQL; listed as Homo sapiens) [compound 89] | ″+++″ (≥50 = +++)
49 | 8 (ALAASALPALV; listed as Homo sapiens) [compound 8] | ″+++″ (≥50 = +++)
50 | 222 (ALWELSLKI; listed as Homo sapiens) [compound 222] | ″+++″ (≥50 = +++)
51 | 136 (NLDKLWTLV; listed as Homo sapiens) [compound 136] | ″++″ (≥20% = ++)
52 | 128 (LLSEEEYHL; listed as Homo sapiens) [compound 128] | ″+++″ (≥50 = +++)
53 | 354 (FIMDDPAGNSYL; listed as Homo sapiens) [compound 354] | ″+++″ (≥50 = +++)
